Measurements published in patent US20230052680A1.
pKd: −log10 of the molar value.

Molecular target: human FGFR2b (beta)-Fc (human) (UniProt P21802)
Assay: surface plasmon resonance (Biacore T200), hFGFR2b-Fc amine-coupled to a CM5 chip, antibody injected

pKd: 9.12
koff: 7.77e-05 s⁻¹
kon: 104000 M⁻¹ s⁻¹
Substance: FPA144 (antibody)
